The text below walks through data of patent US20230416365A1 (Hoffmann-La Roche, published 2023).

Test [1] has as its target T1, biotinylated huCD28-Fc (dimeric CD28-Fc construct with a monovalent biotinylated avi-tag) (human, UniProt P10747 19-152, biotinylated at the C-terminal avi tag).
T1 construct: not shown: hum IgG1 Fc fragment with hole and PG-LALA mutations; hum IgG1 Fc fragment with knob and PG-LALA mutations
Put plainly: SPR, ProteOn XPR36, huCD28-Fc on NLC chip, bispecific as analyte. On the technique in general: In SPR one partner is held on a chip, and binding of the other changes the refractive index at the surface.

For test [2], the target named is T2, human CD28 on CHO cells (parental cell line CHO-k1 ATCC #CCL-61, modified to stably overexpress human CD28) (human, UniProt P10747 19-220).
T2 construct: also called hu CD28; CHO-hCD28
Put plainly: binding to CHO cells expressing human CD28 (by the table's title).

The target of test [3] is T3, human FAP on 3T3-huFAP cells (clone 19) (human, UniProt Q12884 1-760). Put plainly: flow cytometry on 3T3-huFAP cells, FAP-CD28 1+1 constructs, MFI (PE). In general terms: A flow cytometer gives signals particle by particle.
For test [4], the target named is T2, human CD28 on CHO cells (parental cell …). Put plainly: flow cytometry on CHO cells stably expressing human CD28, FAP-CD28 1+1 constructs, MFI (PE).
Test [5] shares this target. Put plainly: flow cytometry on CHO-hCD28 cells.
Test [6] addresses T4, human GPRC5D on CHO-hGPRC5D cells (human, UniProt Q9NZD1 1-345).
T4 construct: also called CHO huGPRC5D L2
Put plainly: flow cytometry on CHO huGPRC5D cells, AF488 anti-human IgG Fc secondary.

The target of test [7] is T3, human FAP on 3T3-huFAP cells (clone 19). Put plainly: flow cytometry on 3T3-huFAP cells, median fluorescence intensity (axis MFI APC).
Test [8] concerns the target T4, human GPRC5D on CHO-hGPRC5D cells. Put plainly: flow cytometry on CHO huGPRC5D cells, PE anti-human IgG Fc secondary.
For test [9], the target named is T5, human CEA (CEACAM5) on cells (MKN45 cells; MV3 cells engineered to express human CEACAM5) (human, UniProt P06731 35-685).
T5 sequence: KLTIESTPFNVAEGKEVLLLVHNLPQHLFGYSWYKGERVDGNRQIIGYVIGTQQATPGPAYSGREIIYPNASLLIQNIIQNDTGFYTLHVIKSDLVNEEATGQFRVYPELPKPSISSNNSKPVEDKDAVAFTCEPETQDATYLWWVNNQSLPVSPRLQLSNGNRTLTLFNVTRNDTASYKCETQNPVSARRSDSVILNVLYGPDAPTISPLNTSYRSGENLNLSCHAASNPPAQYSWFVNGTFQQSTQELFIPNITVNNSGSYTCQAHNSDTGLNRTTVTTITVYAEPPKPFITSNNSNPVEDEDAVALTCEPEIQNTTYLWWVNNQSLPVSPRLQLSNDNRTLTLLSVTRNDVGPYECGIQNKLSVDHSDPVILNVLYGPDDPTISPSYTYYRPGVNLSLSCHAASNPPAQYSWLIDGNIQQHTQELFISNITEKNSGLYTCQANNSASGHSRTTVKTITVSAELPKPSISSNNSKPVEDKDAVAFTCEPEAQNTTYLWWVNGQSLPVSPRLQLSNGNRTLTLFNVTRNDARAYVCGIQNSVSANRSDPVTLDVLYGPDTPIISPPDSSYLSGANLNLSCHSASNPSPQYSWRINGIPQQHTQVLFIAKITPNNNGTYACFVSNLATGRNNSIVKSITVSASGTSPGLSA
Put plainly: flow cytometry on MV3 cells modified to express CEA.

For test [10], the target named is T1, biotinylated huCD28-Fc (dimeric CD28-Fc …). Put plainly: SPR, ProteOn XPR36, huCD28-Fc immobilised, bispecific as analyte.

Residue numbers refer to the chain shown, from its start.

B1: FAP (4B9) - CD28 (CD28(SA)_Variant 27) 1+1 (bispecific antibody, human IgG1, kappa, L234A L235A)
heavy 1: EIVLTQSPGTLSLSPGERATLSCRASQSVTSSYLAWYQQKPGQAPRLLINVGSRRATGIPDRFSGSGSGTDFTLTISRLEPEDFAVYYCQQGIMLPPTFGQGTKVEIKSSASTKGPSVFPLAPSSKSTSGGTAALGCLVKDYFPEPVTVSWNSGALTSGVHTFPAVLQSSGLYSLSSVVTVPSSSLGTQTYICNVNHKPSNTKVDKKVEPKSCDKTHTCPPCPAPEAAGGPSVFLFPPKPKDTLMISRTPEVTCVVVDVSHEDPEVKFNWYVDGVEVHNAKTKPREEQYNSTYRVVSVLTVLHQDWLNGKEYKCKVSNKALGAPIEKTISKAKGQPREPQVCTLPPSRDELTKNQVSLSCAVKGFYPSDIAVEWESNGQPENNYKTTPPVLDSDGSFFLVSKLTVDKSRWQQGNVFSCSVMHEALHNHYTQKSLSLSP
light 1: EVQLLESGGGLVQPGGSLRLSCAASGFTFSSYAMSWVRQAPGKGLEWVSAIIGSGASTYYADSVKGRFTISRDNSKNTLYLQMNSLRAEDTAVYYCAKGWFGGFNYWGQGTLVTVSSASVAAPSVFIFPPSDEQLKSGTASVVCLLNNFYPREAKVQWKVDNALQSGNSQESVTEQDSKDSTYSLSSTLTLSKADYEKHKVYACEVTHQGLSSPVTKSFNRGEC
heavy 2: not shown
light 2: not shown
notes: huIgG1 PG-LALA CrossFab 1+1; also called P1AE3140
Take B1: in [1], binding was put at a Kd of 5.4 nM; the koff (commonly the first-order rate constant of dissociation) stood at 0.00121 s⁻¹; the kon – broadly, the second-order rate constant of association – is 227000 M⁻¹ s⁻¹. Moreover, in test [2], the Kd (in general, the equilibrium constant for the complex coming apart) came to 5.4 nM. In test [3], the binding result was “binds”. Further, the EC50 (read off the curve) (in general, the midpoint of the concentration-response curve) in test [4] is roughly 3 nM.

B2: GPRC5D (5E11)-CD28 (SA_Variant 15) 1+1 format (Molecule 16A) (bispecific antibody, human IgG1, kappa, L234A L235A)
heavy 1: not shown
light 1: QVQLVQSGAEVKKPGASVKVSCKASGYTFTSYYIHWVRQAPGQGLEWIGSIYPGNVQTNYNEKFKDRATLTVDTSISTAYMELSRLRSDDTAVYFCTRSHYGLDWNFDVWGQGTTVTVSSASVAAPSVFIFPPSDEQLKSGTASVVCLLNNFYPREAKVQWKVDNALQSGNSQESVTEQDSKDSTYSLSSTLTLSKADYEKHKVYACEVTHQGLSSPVTKSFNRGEC
heavy 2: EVQLLESGGGLVQPGGSLRLSCAASGFTFSKYAMAWVRQAPGKGLEWVASISTGGVNTYYADSVKGRFTISRDNSKNTLYLQMNSLRAEDTAVYYCATHTGDYFDYWGQGTMVTVSSASTKGPSVFPLAPSSKSTSGGTAALGCLVEDYFPEPVTVSWNSGALTSGVHTFPAVLQSSGLYSLSSVVTVPSSSLGTQTYICNVNHKPSNTKVDEKVEPKSCDKTHTCPPCPAPEAAGGPSVFLFPPKPKDTLMISRTPEVTCVVVDVSHEDPEVKFNWYVDGVEVHNAKTKPREEQYNSTYRVVSVLTVLHQDWLNGKEYKCKVSNKALGAPIEKTISKAKGQPREPQVCTLPPSRDELTKNQVSLSCAVKGFYPSDIAVEWESNGQPENNYKTTPPVLDSDGSFFLVSKLTVDKSRWQQGNVFSCSVMHEALHNHYTQKSLSLSP
light 2: EIVLTQSPGTLSLSPGERATLSCRASQSVSISGINLMNWYQQKPGQQPKLLIYHASILASGIPDRFSGSGSGTDFTLTISRLEPEDFAVYYCQQTRESPLTFGQGTRLEIKRTVAAPSVFIFPPSDRKLKSGTASVVCLLNNFYPREAKVQWKVDNALQSGNSQESVTEQDSKDSTYSLSSTLTLSKADYEKHKVYACEVTHQGLSSPVTKSFNRGEC
notes: huIgG1 PG-LALA CrossFab; also called P1AF1272
For B2, in test [5], the EC50 – broadly, the concentration giving half of the maximal effect – fell in the range of 4.7 to 5.2 nM. Also, the binding result in test [6] is listed as “binds”.

B3: FAP-CD28SA 2+1 (P1AD5231) (bispecific antibody, human IgG1, kappa, L234A L235A)
heavy chain CD28(SA) VLCH1 - FAP(4B9) VHCH1 EE - Fc knob PGLALA: not shown
heavy chain FAP(4B9) VHCH1 EE - Fc hole PGLALA: EVQLLESGGGLVQPGGSLRLSCAASGFTFSSYAMSWVRQAPGKGLEWVSAIIGSGASTYYADSVKGRFTISRDNSKNTLYLQMNSLRAEDTAVYYCAKGWFGGFNYWGQGTLVTVSSASTKGPSVFPLAPSSKSTSGGTAALGCLVEDYFPEPVTVSWNSGALTSGVHTFPAVLQSSGLYSLSSVVTVPSSSLGTQTYICNVNHKPSNTKVDEKVEPKSCDKTHTCPPCPAPEAAGGPSVFLFPPKPKDTLMISRTPEVTCVVVDVSHEDPEVKFNWYVDGVEVHNAKTKPREEQYNSTYRVVSVLTVLHQDWLNGKEYKCKVSNKALGAPIEKTISKAKGQPREPQVCTLPPSRDELTKNQVSLSCAVKGFYPSDIAVEWESNGQPENNYKTTPPVLDSDGSFFLVSKLTVDKSRWQQGNVFSCSVMHEALHNHYTQKSLSLSP
CD28(SA) VHCL: B2 light 1 with S50C, Q57N
FAP(4B9) VLCL RK: EIVLTQSPGTLSLSPGERATLSCRASQSVTSSYLAWYQQKPGQAPRLLINVGSRRATGIPDRFSGSGSGTDFTLTISRLEPEDFAVYYCQQGIMLPPTFGQGTKVEIKRTVAAPSVFIFPPSDRKLKSGTASVVCLLNNFYPREAKVQWKVDNALQSGNSQESVTEQDSKDSTYSLSSTLTLSKADYEKHKVYACEVTHQGLSSPVTKSFNRGEC
notes: monovalent for CD28, bivalent for FAP; also called Molecule G; FAP (4B9)-CD28 (SA) 2+1
With B3, the “EC50 (read off the curve)” value in test [7] was roughly 0.3 nM.

B4: GPRC5D (5E11)-CD28 (SA_Variant 8) 1+1 format (Molecule 16B) (bispecific antibody, human IgG1, kappa, L234A L235A)
heavy 1: not shown
light 1: B2 light 1 with W105F
heavy 2: B2 heavy 2
light 2: B2 light 2
notes: huIgG1 PG-LALA CrossFab; also called P1AF2954
Turning to B4, the EC50 in test [5] is 74.2 nM. For the same molecule, the binding result in test [8] is “binds”.

B5: CEA (A5H1EL1D)-CD28 (SA_Variant 15) 1+1 format (Molecule 11C) (bispecific antibody, human IgG1, kappa, L234A L235A)
heavy 1: EIVLTQSPATLSLSPGERATLSCRASSSVTYIHWYQQKPGQAPRSWIYATSNLASGIPARFSGSGSGTDFTLTISSLEPEDFAVYYCQHWSSKPPTFGQGTKLEIKSSASTKGPSVFPLAPSSKSTSGGTAALGCLVKDYFPEPVTVSWNSGALTSGVHTFPAVLQSSGLYSLSSVVTVPSSSLGTQTYICNVNHKPSNTKVDKKVEPKSCDKTHTCPPCPAPEAAGGPSVFLFPPKPKDTLMISRTPEVTCVVVDVSHEDPEVKFNWYVDGVEVHNAKTKPREEQYNSTYRVVSVLTVLHQDWLNGKEYKCKVSNKALGAPIEKTISKAKGQPREPQVCTLPPSRDELTKNQVSLSCAVKGFYPSDIAVEWESNGQPENNYKTTPPVLDSDGSFFLVSKLTVDKSRWQQGNVFSCSVMHEALHNHYTQKSLSLSP
light 1: EVQLLESGGGLVQPGGSLRLSCAASGFTFTDYYMNWVRQAPGKGLEWLGFIGNKANAYTTEYSASVKGRFTISRDKSKNTLYLQMNSLRAEDTATYYCTRDRGLRFYFDYWGQGTTVTVSSASVAAPSVFIFPPSDEQLKSGTASVVCLLNNFYPREAKVQWKVDNALQSGNSQESVTEQDSKDSTYSLSSTLTLSKADYEKHKVYACEVTHQGLSSPVTKSFNRGEC
heavy 2: not shown
light 2: not shown
notes: huIgG1 PG-LALA CrossFab; also called P1AE4775
Turning to B5, it took 20.4 nM to reach a half-maximal effect in test [9] (EC50). In addition, in test [10], binding was characterised by a dissociation constant (Kd) of 10 nM, the koff turned out to be 0.00264 s⁻¹ and the kon turned out to be 259000 M⁻¹ s⁻¹.
